What was measured:
Raf-1 serine 338/339 = assay: In vitro kinase assay with Raf-1 peptide and Raf-CR3 as substrates; type: biochemical, human
Procedure: (§1) B. Kinase assays. Kinase samples were assessed for their ability to phosphorylate 500 μM Raf-1 peptide (33,[…]345) (SEQ ID NO:4) in the presence of 500 μMATP (containing 2 μCi [γ-^32P]-ATP at 30° C. for 10 minutes. Incubations were analyzed by P-81 phosphocellulose paper assay. Phosphorylation of serine 338/339 in Raf-CR3 was determined by similar incubations containing 1 μg of substrate at 30° C. for 30-60 minutes. Proteins were resolved by SDS-PAGE, transferred to Immobilon-P and the dried, Ponceau S-stained membranes were autoradiographed. Raf-1 kinase activity was measured by the coupled assay method using GST-Mek 1, GST-Erk1 and myelin basic protein by the method of D. Stokoe et al., Science, 264, 1463 (1994).
D. Expression of recombinant Raf-CR3 in E. Coli. DNA sequences encoding residues 307-648 of human c-Raf-1 were amplified by polymerase chain reaction using the 5′-primer […] (SEQ ID NO:5) and the 3′-primer […] (SEQ ID NO:6). The amplified DNA was purified, digested with EcoRI and XhoI and cloned into the Stratagene pCAL-n vector. The entire Raf-CR3 coding sequence was verified by termination reaction PCR DNA sequencing. Raf-CR3 D338E339 and A338A339 substitution mutants were generated by site-directed mutagenesis using the Promega Altered SitesTM in vitro mutagenesis system. Raf-CR3-calmodulin binding protein fusions were expressed in E. coli strain BL21 (pLysS). […]

Raf-1 = molecular target: T1, Raf-1 (Homo sapiens, UniProt P04049); assay: Raf kinase activity after co-transfection of PAK3 constructs with Raf-1 (with or without Ras[V12]) into COS-7 cells; type: cell-based
T1 construct: expressed in transfected cells; host or cells: COS-7
Procedure: as §1
F. Transfections. COS-7 cells were transfected with 10 μg of each plasmid DNA (pcEXV3 containing Ras^[V12], myc-Raf, myc-Raf-CX or pJ3H containing PAK3) by electroporation. Cells were lysed three days post-transfection in the presence of protease and phosphatase inhibitors and Raf-1 kinase activity was then examined as described by Stokoe et al., cited above. Transfection/expression efficiencies were assessed by densitometric scanning of Western blots of immunoprecipitates as well as cell lysates and data sets were normalized accordingly.

Substance: Recombinant PAK3: recombinant His-tagged mouse PAK3 from Sf9 cells
- stimulation of Raf-1 peptide and Raf-CR3 serine 338/339 kinase activity by GTPase (Raf-1 serine 338/339; co-incubation with GST-Rac-GTPγS or GST-Cdc42-GTPγS, FIGS. 4c and 4d): stimulated up to six-fold

Substance: p37: 37-kD Raf-1 serine 338/339 kinase purified from rat spleen, a proteolytically cleaved catalytic domain of PAK3
- specific activity (Raf-1 peptide phosphorylation) (Raf-1 serine 338/339; kinase purified from rat spleen, Mono-P eluate): 19,500 pmol/min/mg

Substance: wild type PAK3: wild type p21-activated protein kinase PAK3, expressed from plasmid in COS-7 cells
- increase of Raf-CX or Ras[V12]-inducible Raf-1 activation on co-expression (Raf-1): did not significantly increase
